# Article PMC7221075
# Columns and labels:
# [1] = target: TMH-iLID membrane anchor (transmembrane helix of E. coli TatA, Val-Leu, Flag peptide, iLID) (Escherichia coli)
# [2] = target: TMH-LOV2 V416L membrane anchor (Escherichia coli | Avena sativa)
# [3] = target: TMH-LOV2 V416L membrane anchor (Escherichia coli | Avena sativa); remark: listed apart in the source
Substance,"light/dark secretion ratio (L/D ratio) of native T3SS substrates, in vitro secretion assay, LITESEC-supp2 (anchor from pACYC184) [1]","secretion efficiency of heterologous cargo expressed from plasmid (YopE1-53-NanoLuc-FLAG), LITESEC-act3, in light [2]","light/dark secretion ratio (L/D ratio) of native T3SS substrates, in vitro secretion assay, LITESEC-act2 (anchor from pBAD) [3]","light/dark secretion ratio (L/D ratio) of native T3SS substrates, in vitro secretion assay, LITESEC-act3 (anchor from pACYC184) [3]"
SspB_Nano-SctQ bait fusion protein,0.26,,,
Zdk1-SctQ bait fusion protein,,50%,2.16,4.18
